We go through 7 molecules from patent US20180140689A1 (PROBIODRUG, published 2018).

Where a chain is given by its changes, count along the chain named. Non-standard residues stand in square brackets, D forms with d. No end group written: not given here. pGlu = O=C1CC[C@@H](C(=O)O)N1

B1: humanized antibody clone #6 sequence variant VH: SEQ ID NO: 27, VL: SEQ ID NO: 14 (antibody, human IgG1, V domains shown)
VH: QVQLVQSGAEVKKSGASVKVSCKASGYSFTGHTMNWVRQAPGQGLEWMGLINPSNGVTRYNQKFQGRVTITRDTSTTTVHMELTSLTSEDTATYYCTREAKREWDETYWGQGTLVTVSS
VL: DVVMTQSPLSLPVTLGQPASISCKSSQSLLYSDGKTYLNWFQQRPGQSPRRLTYLVSKLDSGVPDRFSGSGSGTDFTLKISRVEAEDVGVYYCVQGTHFPFTFGGGTKVEIK
B2: humanized antibody clone #6 sequence variant VH: SEQ ID NO: 24, VL: SEQ ID NO: 14 (antibody, human IgG1, V domains shown)
VH: B1 VH with T93V
VL: B1 VL
B3: humanized antibody clone #6 sequence variant VH: SEQ ID NO: 70, VL: SEQ ID NO: 14 (antibody, human IgG1, V domains shown)
VH: B1 VH with G56E
VL: B1 VL
B4: humanized antibody clone #6 sequence variant VH: SEQ ID NO: 27, VL: SEQ ID NO: 15 (antibody, human IgG1, V domains shown)
VH: B1 VH
VL: B1 VL with Y31H
B5: humanized antibody clone #6 sequence variant VH: SEQ ID NO: 27, VL: SEQ ID NO: 13 (antibody, human IgG1, V domains shown)
VH: B1 VH
VL: B1 VL with T53A

The target of the first experiment is T1, human Aβ pE3-18 peptide, pEFRHDSGYEVHHQKLV (human).
T1 construct: The range 3-18 counts on the Aβ peptide; also called pE3-Aβ18; pE3-Aβ peptide
T1 peptide: [pGlu]FRHDSGYEVHHQKLV
Put plainly: SPR, 1:1 Langmuir fit. The protocol:
First a polyclonal α-human antibody was coupled to an SPR-Chip subsequent loaded with the humanized antibody until the Response Unit was more than 1000.
Kinetic measurement was performed at different concentrations (of 5 to 1000 nM) of AβpE3-18-peptide. The graphs of the measured series are shown as an overlay plot with the sensorgrams, corrected by the sensogram measuring the running buffer, aligned at the time of injection and the baseline adjusted to zero before injection. The results are evaluated according to a simple 1:1 interaction model (Langmuir fit), which promote the koff and kₒₙ rate constants.
Usually Kd stands for the concentration at which binding is half-saturated. Low readings indicate a tighter complex, high ones a looser complex. A word on the koff: it is a measure of how fast the partners let go of each other. Lower therefore signals a long-lived complex. What is called kon is the rate constant with which the complex forms. Higher therefore signals fast association. With B1, the Kd stood at 5.09 nM, the koff was 0.00323 s⁻¹ and the association rate constant (kon) worked out at 635000 M⁻¹ s⁻¹.
Take B2: the Kd was 9.36 nM, the dissociation rate constant (koff) turned out to be 0.00576 s⁻¹ and the kon was determined as 616000 M⁻¹ s⁻¹.
Molecule B3 registered a Kd of 8.43 nM, an off-rate (koff) of 0.00357 s⁻¹ and an on-rate constant (kon) of 423000 M⁻¹ s⁻¹.
The matching figures for B4: 15.5 nM, 0.00415 s⁻¹ and 267000 M⁻¹ s⁻¹.
B5 gave a Kd of 7.35 nM, a koff of 0.00413 s⁻¹ and an on-rate constant (kon) of 562000 M⁻¹ s⁻¹.

The target in another experiment is full length human CD32A on CHO cells (human) (UniProt P12318). Kind of experiment: FACS on CHO cells stably expressing full length human CD32A, bound antibody detected with fluorochrome-conjugated anti-Fab'.
Chain of full length human CD32A on CHO cells (human) (P12318 34-317): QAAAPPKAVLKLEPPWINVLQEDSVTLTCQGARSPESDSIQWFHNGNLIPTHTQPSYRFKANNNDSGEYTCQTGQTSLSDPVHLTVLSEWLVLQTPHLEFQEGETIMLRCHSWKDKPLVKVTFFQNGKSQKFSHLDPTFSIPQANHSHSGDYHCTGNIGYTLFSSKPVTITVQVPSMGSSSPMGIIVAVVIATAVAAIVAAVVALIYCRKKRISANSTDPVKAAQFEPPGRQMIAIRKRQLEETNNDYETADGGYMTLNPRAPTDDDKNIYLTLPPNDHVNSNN
By EC50 (read off the curve) is commonly meant the concentration giving half of the maximal effect. Read a high EC50 (read off the curve) as weaker potency. In turn, “antibody comprising the human IgG1 Fc wild-type region of SEQ ID NO: 73” had a concentration giving a half-maximal response (EC50 (read off the curve)) of 100 nM.
The same measure, in the same setting: in the case of “antibody comprising the K324A mutant variant of the human IgG1 Fc region (SEQ ID NO: 74)” it was 100 nM.
